These are literature values, as cited in publication PMC7226498.

Broadly, the Kd is the equilibrium constant for the complex coming apart.

This data set has as its target p53 OD (Homo sapiens) (UniProt P04637).

Sequence of p53 OD (P04637 325-356): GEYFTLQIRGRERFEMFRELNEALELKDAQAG

In the case of p53 OD (from UniProt P04637), the Kd was 1 nM.
